Experimental data as given in article PMC12748766, “Structural basis for human chondroitin sulfate chain polymerization” (Nature Communications, 2025).

Assays:
[1] = molecular target: T1, Chondroitin Sulfate Synthase-1 (CHSY1), secreted N-terminally truncated construct aa68-aa802 (human, UniProt Q86X52 68-802); test: mass photometry; Refeyn OneMP; purified complexes diluted in 20 mM MES pH 6.5, 150 mM NaCl to around 25 nM; details: both partners purified
T1 construct: CHSY1, human, UniProt Q86X52, residues 68-802 (membrane-spanning helix removed); Construct in pHR-CMV-TetO2 with an N-terminal chicken RPTP sigma signal peptide, SUMO, 6x His and a 3C site; no cleavage site before the C-terminal Avi tag; source: Freestyle 293-F cells, co-transfected, secreted; purified from the supernatant (HisTrap, 3C protease, second HisTrap); not shown: SUMO, N-terminal, …
T1 sequence (looked up): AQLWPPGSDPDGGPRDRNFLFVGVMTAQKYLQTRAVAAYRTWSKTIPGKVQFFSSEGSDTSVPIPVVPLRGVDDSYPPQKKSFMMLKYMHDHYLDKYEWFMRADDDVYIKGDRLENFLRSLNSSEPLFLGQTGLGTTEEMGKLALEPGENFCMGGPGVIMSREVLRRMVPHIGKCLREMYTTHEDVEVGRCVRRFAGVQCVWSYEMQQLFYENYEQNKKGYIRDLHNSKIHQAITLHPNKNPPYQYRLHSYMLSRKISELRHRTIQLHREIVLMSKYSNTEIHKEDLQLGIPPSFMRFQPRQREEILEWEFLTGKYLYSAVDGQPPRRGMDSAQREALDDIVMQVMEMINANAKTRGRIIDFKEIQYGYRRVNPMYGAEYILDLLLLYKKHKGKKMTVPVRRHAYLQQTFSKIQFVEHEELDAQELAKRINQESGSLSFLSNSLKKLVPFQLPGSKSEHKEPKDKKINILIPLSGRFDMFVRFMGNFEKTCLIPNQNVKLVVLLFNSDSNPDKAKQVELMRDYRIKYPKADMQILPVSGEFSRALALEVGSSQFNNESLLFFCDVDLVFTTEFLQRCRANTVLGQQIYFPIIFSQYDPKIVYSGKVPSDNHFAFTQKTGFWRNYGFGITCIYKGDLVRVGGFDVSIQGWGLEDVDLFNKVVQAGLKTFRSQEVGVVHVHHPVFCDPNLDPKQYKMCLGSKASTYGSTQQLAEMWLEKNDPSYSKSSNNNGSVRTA

[2] = molecular target: T2, Chondroitin Sulfate Synthase-3 (CHSY3), secreted N-terminally truncated construct aa157-aa882 (human, UniProt Q70JA7 157-882); test: as above; details: both partners purified
T2 construct: CHSY3, human, UniProt Q70JA7, residues 157-882 (membrane-spanning helix removed); Construct in pHR-CMV-TetO2 with an N-terminal chicken RPTP sigma signal peptide, SUMO, 6x His and a 3C site; no cleavage site before the C-terminal Avi tag; source: Freestyle 293-F cells, co-transfected, secreted; purified from the supernatant (HisTrap, 3C protease, second HisTrap); not shown: SUMO, N-terminal, …
T2 sequence (looked up): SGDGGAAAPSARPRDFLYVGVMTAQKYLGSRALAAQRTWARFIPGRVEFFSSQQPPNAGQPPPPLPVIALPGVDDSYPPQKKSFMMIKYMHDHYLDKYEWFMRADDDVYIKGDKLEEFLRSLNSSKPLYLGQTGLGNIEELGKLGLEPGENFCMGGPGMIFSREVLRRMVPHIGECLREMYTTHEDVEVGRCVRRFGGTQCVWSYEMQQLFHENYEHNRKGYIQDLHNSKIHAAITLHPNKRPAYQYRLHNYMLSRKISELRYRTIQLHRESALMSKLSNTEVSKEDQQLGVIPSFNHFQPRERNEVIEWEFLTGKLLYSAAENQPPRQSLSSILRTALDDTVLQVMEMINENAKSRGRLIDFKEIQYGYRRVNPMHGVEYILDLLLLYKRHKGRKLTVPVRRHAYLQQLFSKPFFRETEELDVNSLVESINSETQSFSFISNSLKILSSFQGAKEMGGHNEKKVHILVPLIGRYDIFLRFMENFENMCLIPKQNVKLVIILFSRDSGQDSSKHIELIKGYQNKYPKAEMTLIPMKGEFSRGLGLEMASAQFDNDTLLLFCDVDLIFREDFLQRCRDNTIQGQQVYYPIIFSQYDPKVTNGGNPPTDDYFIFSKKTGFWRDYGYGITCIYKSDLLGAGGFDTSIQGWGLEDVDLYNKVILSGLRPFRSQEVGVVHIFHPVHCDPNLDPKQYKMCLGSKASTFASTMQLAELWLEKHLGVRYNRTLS

binding result [1]: binds
binding result [2]: binds
B1: Chondroitin Polymerization Factor-2 (CHPF2), secreted N-terminally truncated construct aa57-aa772 (domain or fragment, human, UniProt Q9P2E5 57-772, looked up)
chain: SRARLDQSDEDFKPRIVPYYRDPNKPYKKVLRTRYIQTELGSRERLLVAVLTSRATLSTLAVAVNRTVAHHFPRLLYFTGQRGARAPAGMQVVSHGDERPAWLMSETLRHLHTHFGADYDWFFIMQDDTYVQAPRLAALAGHLSINQDLYLGRAEEFIGAGEQARYCHGGFGYLLSRSLLLRLRPHLDGCRGDILSARPDEWLGRCLIDSLGVGCVSQHQGQQYRSFELAKNRDPEKEGSSAFLSAFAVHPVSEGTLMYRLHKRFSALELERAYSEIEQLQAQIRNLTVLTPEGEAGLSWPVGLPAPFTPHSRFEVLGWDYFTEQHTFSCADGAPKCPLQGASRADVGDALETALEQLNRRYQPRLRFQKQRLLNGYRRFDPARGMEYTLDLLLECVTQRGHRRALARRVSLLRPLSRVEILPMPYVTEATRVQLVLPLLVAEAAAAPAFLEAFAANVLEPREHALLTLLLVYGPREGGRGAPDPFLGVKAAAAELERRYPGTRLAWLAVRAEAPSQVRLMDVVSKKHPVDTLFFLTTVWTRPGPEVLNRCRMNAISGWQAFFPVHFQEFNPALSPQRSPPGPPGAGPDPPSPPGADPSRGAPIGGRFDRQASAEGCFYNADYLAARARLAGELAGQEEEEALEGLEVMDVFLRFSGLHLFRAVEPGLVQKFSLRDCSPRLSEELYHRCRLSNLEGLGGRAQLAMALFEQEQANST
notes: CHPF2, human, UniProt Q9P2E5, residues 57-772 (membrane-spanning helix removed); Construct in pHR-CMV-TetO2 with an N-terminal chicken RPTP sigma signal peptide, SUMO, 6x His and a 3C site; a second 3C site stands before the C-terminal twin streptavidin tag; also called CSGlcA-T; source: Freestyle 293-F cells, co-transfected, secreted; purified from the supernatant (HisTrap, 3C protease, second …)
